# Test results published in article PMC7022630 (Biomolecules, 2020).
# B1: truncated human NDRG3 (residues 29–320, NDRG3 ΔNC) (domain or fragment)
# chain: not shown
# notes: N-Myc downstream-regulated gene 3 protein (NDRG3), human, 375 amino acids, residues 29-320; Elutes as monomer and dimer fractions; mainly monomer; No removal of the His tag is described; also called NDRG3 ΔNC WT; NDRG3 ΔNC wild type; source: E. coli BLR(DE3), purified (Ni-chelating, Q HP, Superdex 200); for the analytical SEC loaded after the Ni-chelating column
# Target: the molecule itself
# Assay: SEC-MALS; Superdex 200 10/300 GL; 20 mM Tris-HCl pH 7.5, 150 mM sodium chloride, 0.5 mM TCEP; 100 μL of monomer and dimer fractions of NDRG3 ΔNC at 2.0 mg/mL injected separately, 0.4 mL/min
protein,measurement,value
B1,stoichiometry N,2
